Measured values as given in ChEMBL document CHEMBL1124124, “Synthesis and interaction with uridine phosphorylase of 5'-deoxy-4',5-difluorouridine, a new prodrug of 5-fluorouracil” (J Med Chem, 1988).

Tests used:
[1] = Kinetic constant for interaction with Urd phosphorylase from Lewis lung carcinoma
[2] = molecular target: Uridine phosphorylase 1 (Mus musculus) (UniProt P52624); assay: as above; conditions: mouse
Uridine phosphorylase 1 (Mus musculus), sequence (P52624 whole entry, looked up): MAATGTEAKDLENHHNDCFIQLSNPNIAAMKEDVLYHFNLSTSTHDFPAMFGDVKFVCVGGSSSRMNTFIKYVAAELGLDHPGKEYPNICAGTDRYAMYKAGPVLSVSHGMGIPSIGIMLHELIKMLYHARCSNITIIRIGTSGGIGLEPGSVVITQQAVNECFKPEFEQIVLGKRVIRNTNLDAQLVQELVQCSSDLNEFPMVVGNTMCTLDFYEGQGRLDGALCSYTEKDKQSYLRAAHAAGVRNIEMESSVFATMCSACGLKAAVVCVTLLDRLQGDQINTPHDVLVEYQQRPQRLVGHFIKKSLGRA

B1: Uridine phosphorylase 1 (Homo sapiens), Q16831 (protein)
chain: MAATGANAEKAESHNDCPVRLLNPNIAKMKEDILYHFNLTTSRHNFPALFGDVKFVCVGGSPSRMKAFIRCVGAELGLDCPGRDYPNICAGTDRYAMYKVGPVLSVSHGMGIPSISIMLHELIKLLYYARCSNVTIIRIGTSGGIGLEPGTVVITEQAVDTCFKAEFEQIVLGKRVIRKTDLNKKLVQELLLCSAELSEFTTVVGNTMCTLDFYEGQGRLDGALCSYTEKDKQAYLEAAYAAGVRNIEMESSVFAAMCSACGLQAAVVCVTLLNRLEGDQISSPRNVLSEYQQRPQRLVSYFIKKKLSKA
Km [1]: 0.6 mM | Km [2]: 6 mM
